According to paper PMC4848949, “Bacterial Expression and Kinetic Analysis of Carboxylesterase 001D from Helicoverpa armigera” (International Journal of Molecular Sciences, 2016):

B1: Trx/6×His/S-tag/001D (pET32a-001D) (Helicoverpa armigera) (protein)
chain: DDEWREVRTAQGPVRGRKHPTADMYAFYNIPYATAPTGEDKFKAPLPGPVWLEPFDAVDERVVCPQAKLPMDIMKNVVEKENCLIANVFVPNTEEKNLSVVVYVHGGAFIIGSGNMIQATHLMKTNDFIMVSFNYRLGIHGFLCLGTEDAPGNAGMKDQVALLRWVQKNIASFGGNPDDVTIVGSSAGSASVDLLMLSKSAEGLFHRVIPESGGNLAAFTVQRDPVEIAKTHAKKLNFNNVDDIYALEEFYKTVPMELLTSDHFFDRTDATFVFGPCVERDTGDGAFLTESPLSILKSGNYRKLPLLYGFAEMEGLMRINVFELWKHKMNEKFSDFLPADLKFDSEEEREEVANKIKRFYFGDKPVGDENVLKYVDYFSDVYFAYSMLWAVKLHAEAGNNQVYLYEYSFVDEDTPLVPHTNVRGADHCTQTMAVYDMKNITHEDESLATPELQKMKKVVREIWHNFIKTGVPVPEGSWLPAWPAAGADRAPHMSLGERLELRGALLPERTRFWDDIYQRYYRDAVPPPTPPPRPRSEL
notes: mature enzyme, signal peptide (residues 1-16) removed; N-terminal Trx/6×His/S-tag kept; E. coli BL21(DE3), Ni-NTA; about 79 kDa; full precursor 554 residues
B2: 6×His/001D (pE1-001D) (Helicoverpa armigera) (protein)
chain: DDEWREVRTAQGPVRGRKHPTADMYAFYNIPYATAPTGEDKFKAPLPGPVWLEPFDAVDERVVCPQAKLPMDIMKNVVEKENCLIANVFVPNTEEKNLSVVVYVHGGAFIIGSGNMIQATHLMKTNDFIMVSFNYRLGIHGFLCLGTEDAPGNAGMKDQVALLRWVQKNIASFGGNPDDVTIVGSSAGSASVDLLMLSKSAEGLFHRVIPESGGNLAAFTVQRDPVEIAKTHAKKLNFNNVDDIYALEEFYKTVPMELLTSDHFFDRTDATFVFGPCVERDTGDGAFLTESPLSILKSGNYRKLPLLYGFAEMEGLMRINVFELWKHKMNEKFSDFLPADLKFDSEEEREEVANKIKRFYFGDKPVGDENVLKYVDYFSDVYFAYSMLWAVKLHAEAGNNQVYLYEYSFVDEDTPLVPHTNVRGADHCTQTMAVYDMKNITHEDESLATPELQKMKKVVREIWHNFIKTGVPVPEGSWLPAWPAAGADRAPHMSLGERLELRGALLPERTRFWDDIYQRYYRDAVPPPTPPPRPRSEL
notes: mature enzyme, signal peptide (residues 1-16) removed; N-terminal 6×His tag kept; E. coli BL21(DE3), Ni-NTA; about 63 kDa
B3: 6×His/S-tag/001D (pET30a-001D) (Helicoverpa armigera) (protein)
chain: DDEWREVRTAQGPVRGRKHPTADMYAFYNIPYATAPTGEDKFKAPLPGPVWLEPFDAVDERVVCPQAKLPMDIMKNVVEKENCLIANVFVPNTEEKNLSVVVYVHGGAFIIGSGNMIQATHLMKTNDFIMVSFNYRLGIHGFLCLGTEDAPGNAGMKDQVALLRWVQKNIASFGGNPDDVTIVGSSAGSASVDLLMLSKSAEGLFHRVIPESGGNLAAFTVQRDPVEIAKTHAKKLNFNNVDDIYALEEFYKTVPMELLTSDHFFDRTDATFVFGPCVERDTGDGAFLTESPLSILKSGNYRKLPLLYGFAEMEGLMRINVFELWKHKMNEKFSDFLPADLKFDSEEEREEVANKIKRFYFGDKPVGDENVLKYVDYFSDVYFAYSMLWAVKLHAEAGNNQVYLYEYSFVDEDTPLVPHTNVRGADHCTQTMAVYDMKNITHEDESLATPELQKMKKVVREIWHNFIKTGVPVPEGSWLPAWPAAGADRAPHMSLGERLELRGALLPERTRFWDDIYQRYYRDAVPPPTPPPRPRSEL
notes: mature enzyme, signal peptide (residues 1-16) removed; N-terminal 6×His/S-tag kept; E. coli BL21(DE3), Ni-NTA; about 67 kDa

The proteins below were run on CC(=O)Oc1cccc2ccccc12 (assay: purified protein). Settings: 0.1 M sodium phosphate pH 7.0, 30 °C.
Assay type: biochemical, Helicoverpa armigera

B1 was tested. Which Km did it give?
The Km was 7.61(0.63) µM.

What about the kcat of the same protein?
The kcat was 2.29(0.08) s^-1.

Which Km does the source give for B2 here?
Its Km is 19.72(6.69) µM.

What about the kcat of the same protein?
Its kcat is 0.35(0.05) s^-1.

Which results are given for B3?
Km: 12.51(2.14) µM; kcat: 0.60(0.06) s^-1
